The values that follow come from the nanobody polyreactivity screen of Harvey et al. (2022).

A short description of the data set: yeast display, Sf9 membrane polyspecificity reagent, FACS + sequencing; frameworks hold sequencing errors. The gist of the method: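 Galactose-induced (36–48 hours) yeast carrying a synthetic nanobody display library were exposed to 10% biotinylated, detergent-solubilized Sf9 membrane reagent at 4 °C for 1 hour. FACS followed streptavidin microbead enrichment, using low and high (top ~1%) gates for expression (anti-HA) and reagent binding (streptavidin). Colony PCR, MiSeq 2 × 250 sequencing and CDR-length filtering followed. Labels for polyreactivity reflect the gate of origin.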
For the sequence “QVQLVESGGGLVQAGGSLRLSCAASGRTFTINTLGWYRQAAGKERELVAAIVGDGTTNYADSVKGLFTISGDNAKNTVDLQMNSLKPEDTAVYYCAADAGYLYDWPYNSYYWGQGTQLTVSS”, the “polyreactivity (PSR sort gate)” value is on record as “low polyreactivity”.

Take “QVQLVESGGGLVQAGGSLRLSCAASGRTFTIYARGWYRQAPGKERELVAAIRRTGVSTYYADSVKGRFTISRDYAKNTVYLQMNSLKPEDTAVYYCAARQYSYLRLWWYEYWGQGTQVTVSS”: the “polyreactivity (PSR sort gate)” value is reported as “high polyreactivity”.

Regarding “QVQLVESGGGLVQAGGSLRLSCAASGRTFTNNAMGWYRQAPGKERELVAAIRWSGGSTYYADSVKGRFTISRDNAKNTVYLQMNSLKPEDTAVYYCAKGYGYVEAVIVQYDYWGQGTQVTVSS”, the “polyreactivity (PSR sort gate)” value is on record as “low polyreactivity”.

Consider “QVQLVESGGGLVQAGGSLRLSCAASGRTFTPNAMGGYRQAPGKERELVAAIDWRGGRTYYADSVKGRFTISRDNAKNTVYLQMNSLKPEDSAVYYCAARVDGYHYKSAGYSYGVYYWGQGTQVTVSS”, for which the “polyreactivity (PSR sort gate)” value is “low polyreactivity”.

Take “QVQLVESGGGLVQAGGSLRLSCAASGRTFTPNAMGWYRQAPGKERELVASIRRGTSTYYADSVKGRFTISRDNAKNTVYLQMNSLKPEDTAVYYCAAKSYHGYPFDYWGQGTQVTVSS”: the “polyreactivity (PSR sort gate)” value is “high polyreactivity”.

“QVQLVESGGGLVQAGGSLRLSCAASGRTFTPYAMGWYRQAPGKERELVAAINSDGSTNYADSVKGRFTISRDNAKNTVYLHMNSLKPEDTAVYYCAAGYSLEGDYWGQGTQVTVSS”: the “polyreactivity (PSR sort gate)” value is on record as “low polyreactivity”.

Turning to “QVQLVESGGGLVQAGGSLRLSCAASGRTFTPYAMGWYRQAPGKERELVATISSGTSTNYADSVNGRFTISRDNAKNTVYLQMNSLKPEDTAVYYCAADGYTYKFDYWGQGTQVTVSS”, the “polyreactivity (PSR sort gate)” value is recorded as “low polyreactivity”.

Regarding “QVQLVESGGGLVQAGGSLRLSCAASGRTFTPYDMGWYRQAPGKERELVAAITWRGGSTYYADSVKGRFTISRDNAKNTVYLQMNSLKPEDTAVYYCAKDRWTYAFRVGYGYWGQGTQVTVSS”, the “polyreactivity (PSR sort gate)” value was “high polyreactivity”.

As to “QVQLVESGGGLVQAGGSLRLSCAASGRTFTRNAMGWYRQAPGKERELVAAISYSGGSTYYADSVKGRFTISRDNAKNTVYLQMNSLKPEDTAVYYCNAATSRRSIRYDYWGQGTQVTVSS”, the “polyreactivity (PSR sort gate)” value is “high polyreactivity”.

Consider “QVQLVESGGGLVQAGGSLRLSCAASGRTFTRYAMGWYRQAPGKERELVAAISWSGTSTHYADSVKGGFTISRDNATNTVYLQMNSLKPEDTAVYYCAARRYPVLKYDYWGQGTQVTVSS”, for which the “polyreactivity (PSR sort gate)” value is on record as “high polyreactivity”.

Regarding “QVQLVESGGGLVQAGGSLRLSCAASGRTFTRYTMGWYRQAPGKERELVAAIRYSGGSTYYADSVKGRFTISRDNAKNTVYLQMNSLKPEDTAVYYCAARSYYYGFLYRYDYWGQGTQVTVSS”, the “polyreactivity (PSR sort gate)” value is given as “low polyreactivity”.

With “QVQLVESGGGLVQAGGSLRLSCAASGRTFTSYAMGWYRQAPGKEREFVAAITTSGGSTYYTDSVKGRFTISRDNAKNTVYLQMNSLKPEDTAVYYCAAYVAYDRSGQYDYWGQGTQVTVSS”, the “polyreactivity (PSR sort gate)” value is listed as “high polyreactivity”.

For “QVQLVESGGGLVQAGGSLRLSCAASGRTFTSYAMGWYRQAPGKERELVAGISSGGSTFYADSVKGRFTISRDNAQNTVYLQMNSLKPEDTAVYYCAADFRRVFSKYSYYLYFDFDYWGQGTQVTVSS”, the “polyreactivity (PSR sort gate)” value was “low polyreactivity”.

On to “QVQLVESGGGLVQAGGSLRLSCAASGRTFTVNRMGWYRQAPGKERELVAGITLRGANTYYADSVKGRFTISRDNAKNTVYLQMNSLKPEDTAVYYCNDDVKYRYNHWGQGTQVTVSS”, for which the “polyreactivity (PSR sort gate)” value is “high polyreactivity”.

As for “QVQLVESGGGLVQAGGSLRLSCAASGRTFTVYAMGWYRPAPGKERELVAAISSGGITYYADSVKGRFTISRDNAKNTVYLQMNSLKPEDTAVYYCNTKSGKARYEFGYWGQGTQVTVSS”, the “polyreactivity (PSR sort gate)” value is on record as “low polyreactivity”.

In the case of “QVQLVESGGGLVQAGGSLRLSCAASGRTFTVYAMGWYRQAPGKEREFVASISKSGGRTYYADSVKGRFTISRDNAKNTVYLQMNSLKPEDTAVYYCAKVETYLQIAYRRGYDSWGQGTQVTVSS”, the “polyreactivity (PSR sort gate)” value is reported as “low polyreactivity”.

As to “QVQLVESGGGLVQAGGSLRLSCAASGRTFTVYAMGWYRQAPGKERELVATISGSTGSTYYADSVKGRFTISRDNAKNTVYLQMNSLKPEDTAVYYCAARVRYRYLIGSGFDYWGQGTQVTVSS”, the “polyreactivity (PSR sort gate)” value is reported as “low polyreactivity”.

For “QVQLVESGGGLVQAGGSLRLSCAASGRTFTYNAMGWYRQAPGKDRELVASIRRSGTITYSADSVKGRFTISRDNAKNTVYLQMNSLKPEDTAVYYCAARYPWYRYYSWGQGTQVTVSS”, the “polyreactivity (PSR sort gate)” value is “high polyreactivity”.

In the case of “QVQLVESGGGLVQAGGSLRLSCAASGRTFTYNAMGWYRQAPGKERELVAAISSSGGRTYYADSVKGRFTISRDNAKNTVYLQMNSLKPEDTAVYYCNKVKYRFSPPGYDYWGQGTQVTVSS”, the “polyreactivity (PSR sort gate)” value was “high polyreactivity”.

On to “QVQLVESGGGLVQAGGSLRLSCAASGRTFTYNTMGWYRQETGKQRELVAAISSSGGSTYYADSVKGRFTISRDNAKNTVYLQMNSLKPEDTAVYYCAKRYFSSSRYYYWGQGTQVTVSS”, for which the “polyreactivity (PSR sort gate)” value was “high polyreactivity”.

With “QVQLVESGGGLVQAGGSLRLSCAASGRTFTYNVLGWYRVAPGKERELVAAITSGGSNYADSVKGRFTISRDNAKNTVYLQLNSLKPEDTAGYYCATDYYDDVTIGYDYWGPGTQVTVSS”, the “polyreactivity (PSR sort gate)” value is given as “low polyreactivity”.

As for “QVQLVESGGGLVQAGGSLRLSCAASGRTFTYYAMGWYIQAPGKERELVAAISSGGRTYYADSVKGRFTISRDNAKNTVYLQMNSLKPEDTAVYYCAADAYRSPWRLYGSRFGYWGQGTQVTVSS”, the “polyreactivity (PSR sort gate)” value is listed as “high polyreactivity”.

Turning to “QVQLVESGGGLVQAGGSLRLSCAASGRTFTYYAMGWYRQAPGKERELVAAISRGGGSTHYADSVKGRFTISRDNEKNTVYLQMNSLKPEDTAVYYCAARYSTRYKYDYWGQGTQVTVSS”, the “polyreactivity (PSR sort gate)” value is recorded as “high polyreactivity”.

For “QVQLVESGGGLVQAGGSLRLSCAASGRTFTYYAMGWYRQAPGKERELVAAITGRGGRTYYADSVKGRFTISRDIAKNTVYLQMNSLKREDTAVYYCATRDPYYSSEYTYGYWGQGTQVTVSS”, the “polyreactivity (PSR sort gate)” value was “high polyreactivity”.

Turning to “QVQLVESGGGLVQAGGSLRLSCAASGRTFTYYAMGWYRRAPGKERELVAAIRWTGDSTYYADSVKGRFTISRDNAKNTVYLQMNSLKPEHTAVYYCATQARWQYDGGIRWYYYWGQGTQVTVSS”, the “polyreactivity (PSR sort gate)” value is “high polyreactivity”.

“QVQLVESGGGLVQAGGSLRLSCAASGRTFTYYTMGWYRQAPGKERELVAAITWSGGRTYYADSVKGRFTISRDNAKNTVYLQMNSLKPEDTAVYYCAKPPQGTYDYWGQGTQVTVSS”: the “polyreactivity (PSR sort gate)” value is reported as “low polyreactivity”.

Regarding “QVQLVESGGGLVQAGGSLRLSCAASGRTFVANGMGGYRQAPGKERELVAAINYGDDTYYADSVKGRFTISRDNAKNTVYLQMNSQKPEDTAFYFLAADIIYGYEVYTYTSDYWGQGTQVTVSS”, the “polyreactivity (PSR sort gate)” value is on record as “low polyreactivity”.

As to “QVQLVESGGGLVQAGGSLRLSCAASGRTFVDYDMGWYRQAPGKERELVADINSGGSTYYADSVKGRFTISRDNAKNTVYLQMNSQKPEDTAVYDCAVRSRGTAPQYYYWGQGTQVTVSS”, the “polyreactivity (PSR sort gate)” value is recorded as “high polyreactivity”.

With “QVQLVESGGGLVQAGGSLRLSCAASGRTFVENAMGWYRQAPGKERELVAAITYRGGRTFYADSVKGRFTISRDNAKNTVYLQMNSLKPEDTAVYYCNAVRRTGGHGDYWGQGTQVTVSS”, the “polyreactivity (PSR sort gate)” value is “high polyreactivity”.

Regarding “QVQLVESGGGLVQAGGSLRLSCAASGRTFVEYAMGWYRPAPGKERELVAAITWDGGSTYYADSVKGRFTISRDNAKYTVYLQMNSLKPEDTAVYYCNADYRQITSYGFDYWGQGTQVTVSS”, the “polyreactivity (PSR sort gate)” value is on record as “low polyreactivity”.
